The text below walks through data of publication PMC6043480, “Molecular basis for the inhibition of the methyl-lysine binding function of 53BP1 by TIRR” (Nature Communications, 2018).

B2: 53BP1 tandem Tudor domain (residues 1459-1634) (domain or fragment, human, UniProt Q12888 1459-1634, looked up)
chain: RSDSPEIPFQAAAGPSDGLDASSPGNSFVGLRVVAKWSSNGYFYSGKITRDVGAGKYKLLFDDGYECDVLGKDILLCDPIPLDTEVTALSEDEYFSAGVVKGHRKESGELYYSIEKEGQRKWYKRMAVILSLEQGNRLREQYGLGPYEAVTPLTKAADISLDNLVEGKRKRRSNVS
notes: also called 53BP1 TTD; TTD; source: E. coli BL21 (DE3), purified (Ni-chelating Sepharose, 3C protease, Source 15Q, Superdex 200 Increase); not shown: His6, N-terminal, cleaved
B3: Tudor interacting repair regulator (TIRR), residues 6-211 (domain or fragment, human, UniProt Q9BRJ7 6-211, looked up)
chain: VPELKQISRVEAMRLGPGWSHSCHAMLYAANPGQLFGRIPMRFSVLMQMRFDGLLGFPGGFVDRRFWSLEDGLNRVLGLGLGCLRLTEADYLSSHLTEGPHRVVAHLYARQLTLEQLHAVEISAVHSRDHGLEVLGLVRVPLYTQKDRVGGFPNFLSNAFVSTAKCQLLFALKVLNMMPEEKLVEALAAATEKQKKALEKLLPASS
notes: two TIRR molecules in the crystal; also called NUDT16L1; wild-type TIRR; source: E. coli BL21 (DE3), purified (Ni-chelating Sepharose, 3C protease, Superdex 200 Increase); not shown: His6, N-terminal, cleaved

Ends that are not written are not given here. dimethyl = dimethyl-lysine

In data set [1] the target is B2. Kind of data set: ITC; 25 °C, PBS pH 7.0 with 140 mM NaCl; 150 μM 53BP1 TTD injected into 15 μM TIRR or its mutants; 80-100 μM TTD mutant into 8-10 μM TIRR; 750 μM H4K20me2 peptide into 37.5 μM TTD. The settings on record: both partners purified.
For data set [2], the target named is B3. The description is as above. The note with it: both partners purified.
Data set [3] has as its target B3. Kind of data set: AUC; sedimentation velocity, 60,000 rpm, 20 °C, 10 mM Tris-HCl pH 8.0, 200 mM NaCl, 3 mM DTT; TIRR 53 μM, TTD 35 μM, mixture 20 μM TIRR with 20 μM TTD. The note with it: both partners purified.
Data set [4] concerns the molecule itself. Described as above.

B1: H4K20me2 peptide (residues 12-25) (peptide, UniProt P62805 13-26, looked up)
peptide: KGGAKRHRK(dimethyl)VLRDN
notes: histone H4, residues 12-25, dimethylated on lysine 20; Peptide used in ITC
Take B1: the binding result in data set [1] was “binds”.

In the case of B2, in data set [2], the Kd – broadly, the free concentration of one partner at which half of the binding sites on the other are occupied at equilibrium, for simple one-to-one binding – was approximately 780 nM. Also, the stoichiometry N (as a rule, the number of molecules, sites or subunits per partner or assembly) in data set [3] is 1.

As for B3, in data set [4], the “stoichiometry N” value came to 2.
